± gives the uncertainty stated by the source.
Assay: self-splicing fitness, log relative to wild type (ln ratio); higher = more splicing; Tetrahymena group I intron in knt gene, E. coli kanamycin selection, DiMSum; sequences stand for … in CUCUCU…GGAGGGAAAAGUUAUCAGGCAUGCACCUGGUAGCUAGUCUUUAAACCAAUAGAUUGCAUCGGUUUAAAAGGCAAGACCGUCAAAUUGCGGGAAAGGGGUCAACAGCCGUUCAGUACCAAGUCUCAGGGGAAACUUUGAGAUGGCCUUGCAAAGGGUAUGGUAAUAAGCUGACGGACAUGGUCCUAACCACGCAGCCAAGUCCUAAGUCAACAGAUCUUCUGUUGAUAUGGAUGCAGUUCACAGACUAAAUGUCGGUCGGGGAAGAUGUAUUCUUCUCAUAAGAUAUAGUCGGACCUCUCCUUAAUGGGAGCUAGCGGAUGAAGUGAUGCAACACUGGAGCCGCUGGGAACUAAUUUGUAUGCGAAAGUAUAUUGAUUAGUUUUGGAGUACUCGUGGUCG
Outline: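 The eight P1ex-region nucleotides of an intron in the knt kanamycin-resistance gene on pET-22b(+) were all randomised and the library put into E. coli BL21(DE3). Six replicate transformations were grown overnight at 37°C or 30°C on LB agar with or without 25 μg/mL kanamycin, together with 100 μg/mL carbenicillin, 50 μM IPTG and 0.2% rhamnose. Colonies were pooled and amplicon-sequenced on an Illumina HiSeq 2500. Fitness from DiMSum is the error-weighted combination of wild-type-normalised replicate fold changes, kanamycin over none.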

| Sequence | self-splicing fitness (ln) (30 °C) | self-splicing fitness (ln) (37 °C) |
| --- | --- | --- |
| UAUCAGCAAUAUUACGCCGC | -1.58 ± 0.19 | -2.02 ± 0.27 |
| CCUAAGCAAUAUUACGAACU | -3.44 ± 0.48 | -1.99 ± 0.22 |
| GCUAAGCAAUAUUACGGCCG | -3.06 ± 0.25 | -2.9 ± 0.47 |
| UGGGAGCAAUAUUACGGGUG | -3.33 ± 0.47 | -0.981 ± 0.26 |
| AACGAGCAAUAUUACGUCAC | -4.01 ± 0.23 | -1.83 ± 0.22 |
| GCCAAGCAAUAUUACGGAAU | -1.8 ± 0.15 | -0.618 ± 0.15 |
| UAGUAGCAAUAUUACGCUCU | -1.71 ± 0.16 | -0.589 ± 0.17 |
| ACAAAGCAAUAUUACGUUUU | -3.53 ± 0.14 | -2.95 ± 0.16 |
| UGGCAGCAAUAUUACGUGGU | -2.84 ± 0.15 | -2.99 ± 0.23 |
| ACACAGCAAUAUUACGAAUU | -3.01 ± 0.084 | -2.02 ± 0.1 |
| UGGAAGCAAUAUUACGAAAG | -1.72 ± 0.16 | -0.893 ± 0.2 |
| UGAUAGCAAUAUUACGGCUG | 0.473 ± 0.11 | -0.149 ± 0.14 |
| CUGUAGCAAUAUUACGCUCG | -1 ± 0.18 | -0.773 ± 0.25 |
| AAUUAGCAAUAUUACGUCUU | 0.444 ± 0.091 | 0.46 ± 0.098 |
| AGGGAGCAAUAUUACGAACC | -1.52 ± 0.23 | -1.48 ± 0.29 |
| CGUCAGCAAUAUUACGCAAU | -1.37 ± 0.1 | -2.12 ± 0.24 |
| UUGUAGCAAUAUUACGCGUG | -0.196 ± 0.079 | -0.498 ± 0.1 |
| GUAUAGCAAUAUUACGAGGG | -3.15 ± 0.26 | -0.987 ± 0.23 |
| CUCAAGCAAUAUUACGGGAG | -2.91 ± 0.17 | -1.77 ± 0.18 |
| GUCAAGCAAUAUUACGGUUC | -0.665 ± 0.068 | -0.255 ± 0.1 |
| GUCGAGCAAUAUUACGGGGG | -2.05 ± 0.29 |  |
| CCUUAGCAAUAUUACGGCCA | -3.46 ± 0.41 | -1.69 ± 0.18 |
| CCCCAGCAAUAUUACGUGGC | -4.37 ± 0.14 | -2.74 ± 0.12 |
| UAUAAGCAAUAUUACGUUUG | -1.84 ± 0.11 | -1.61 ± 0.14 |
| GACCAGCAAUAUUACGCAAU | -0.846 ± 0.062 | -0.343 ± 0.077 |

| Sequence | self-splicing fitness (ln) (30 °C) | self-splicing fitness (ln) (37 °C) |
| --- | --- | --- |
| GCUGAGCAAUAUUACGGUCG | -2.59 ± 0.17 | -2.24 ± 0.22 |
| GGCUAGCAAUAUUACGGGUG | -0.804 ± 0.094 | -0.739 ± 0.1 |
| CUAUAGCAAUAUUACGGAGA | -2.82 ± 0.3 | -1.38 ± 0.33 |
| UACGAGCAAUAUUACGGGGA | -2.87 ± 0.29 | -1.69 ± 0.19 |
| GUAAAGCAAUAUUACGUAUG | -4.04 ± 0.25 | -0.559 ± 0.12 |
| UACUAGCAAUAUUACGAUGA | -0.469 ± 0.13 | -0.321 ± 0.11 |
| UACAAGCAAUAUUACGCUUC | -4.25 ± 0.42 | -3.02 ± 0.25 |
| GCCAAGCAAUAUUACGGGGC | -3.69 ± 0.22 | -2.85 ± 0.27 |
| UUUGAGCAAUAUUACGCUAG | -2.68 ± 0.37 | -1.33 ± 0.23 |
| AAGCAGCAAUAUUACGUAGG | -2.79 ± 0.096 | -1.96 ± 0.13 |
| GCUUAGCAAUAUUACGAAUA | -2.05 ± 0.25 | -0.645 ± 0.18 |
| AUGGAGCAAUAUUACGGAUA | -2.46 ± 0.17 | -2.21 ± 0.28 |
| GCAUAGCAAUAUUACGUCCU | -1.16 ± 0.12 | -0.534 ± 0.15 |
| AUAUAGCAAUAUUACGCAUA | -2.02 ± 0.26 | -0.946 ± 0.26 |
| CCAGAGCAAUAUUACGAAGA | -3.48 ± 0.31 | -2.84 ± 0.43 |
| UACAAGCAAUAUUACGAGAU | -3.65 ± 0.28 | -3.07 ± 0.28 |
| CCUAAGCAAUAUUACGGCCG | -0.351 ± 0.18 | -0.367 ± 0.22 |
| CAGCAGCAAUAUUACGAAGA | -2.72 ± 0.31 | -2.6 ± 0.38 |
| GCGUAGCAAUAUUACGGACG | -3.14 ± 0.21 | -2.1 ± 0.22 |
| CUGUAGCAAUAUUACGCUUA | -3.24 ± 0.37 | -3.24 ± 0.43 |
| CCAAAGCAAUAUUACGGAAU | -4.11 ± 0.39 | -2.95 ± 0.22 |
| AAUUAGCAAUAUUACGGAUU | -2.2 ± 0.12 | -1.3 ± 0.14 |
| UAGUAGCAAUAUUACGCCUA | -0.556 ± 0.14 | -0.575 ± 0.14 |
| CUCCAGCAAUAUUACGCACC |  | -2.4 ± 0.45 |
| UGGAAGCAAUAUUACGUACG | -0.898 ± 0.11 | 0.202 ± 0.13 |

| Sequence | self-splicing fitness (ln) (30 °C) | self-splicing fitness (ln) (37 °C) |
| --- | --- | --- |
| GAUAAGCAAUAUUACGUGCA | -0.463 ± 0.15 | -1.06 ± 0.18 |
| GCCAAGCAAUAUUACGGGUA | -0.958 ± 0.052 | -0.102 ± 0.062 |
| GAACAGCAAUAUUACGCAUA | -0.914 ± 0.079 | -0.68 ± 0.094 |
| CUUUAGCAAUAUUACGGUUC | -3.33 ± 0.3 | -2.83 ± 0.29 |
| AACGAGCAAUAUUACGUCGG | -3.25 ± 0.26 | -0.594 ± 0.15 |
| AGUCAGCAAUAUUACGCAUA | -2.09 ± 0.13 | -0.502 ± 0.12 |
| UUUGAGCAAUAUUACGAUAU |  | -0.926 ± 0.24 |
| AGUAAGCAAUAUUACGCGUU | -3.44 ± 0.17 | -2.8 ± 0.19 |
| GAGAAGCAAUAUUACGUUUG | -2.98 ± 0.11 | -1.85 ± 0.14 |
| AAAAAGCAAUAUUACGACUA | -0.0366 ± 0.1 | 0.028 ± 0.1 |
| AUCUAGCAAUAUUACGAGCG | -1.87 ± 0.12 | -1.25 ± 0.15 |
| CUCAAGCAAUAUUACGAGUG | -2.91 ± 0.11 | -1.41 ± 0.086 |
| UUUCAGCAAUAUUACGACAG | -0.245 ± 0.089 | 0.886 ± 0.15 |
| CCUGAGCAAUAUUACGGGGU | -3.44 ± 0.24 | -3.06 ± 0.27 |
| ACCCAGCAAUAUUACGCCUA | -1.15 ± 0.073 | -0.478 ± 0.07 |
| GGACAGCAAUAUUACGCCGU | -4.23 ± 0.46 | -3.05 ± 0.26 |
| AGACAGCAAUAUUACGCGUG | -1.91 ± 0.075 | -0.597 ± 0.086 |
| UUUGAGCAAUAUUACGGGUU | -3.23 ± 0.34 | -2.91 ± 0.48 |
| UUAAAGCAAUAUUACGGCAU | -0.866 ± 0.11 | 0.331 ± 0.12 |
| GCGUAGCAAUAUUACGCGGG | -3.78 ± 0.24 | -2.75 ± 0.3 |
| AGUGAGCAAUAUUACGGUUA | -2.29 ± 0.23 | -2.48 ± 0.2 |
| AAGGAGCAAUAUUACGUGUC |  | -2.12 ± 0.32 |
| AUAGAGCAAUAUUACGGGUU | -2.43 ± 0.16 | -1.1 ± 0.17 |
| UGGGAGCAAUAUUACGUCGU | -2.14 ± 0.2 | -2 ± 0.46 |
| UAUCAGCAAUAUUACGGGAG | -1.83 ± 0.087 | -1.17 ± 0.098 |

| Sequence | self-splicing fitness (ln) (30 °C) | self-splicing fitness (ln) (37 °C) |
| --- | --- | --- |
| CUGGAGCAAUAUUACGCAUG | -2.07 ± 0.13 | -0.898 ± 0.17 |
| UGGGAGCAAUAUUACGGGAU | -3.11 ± 0.37 | -2.17 ± 0.29 |
| GCGUAGCAAUAUUACGACAC | -0.714 ± 0.092 | -0.0138 ± 0.097 |
| UUUAAGCAAUAUUACGCAUU | -2.05 ± 0.17 | -2.63 ± 0.24 |
| CCCAAGCAAUAUUACGCCUU | -3.04 ± 0.16 | -2.88 ± 0.21 |
| CCAAAGCAAUAUUACGUUCG | -0.496 ± 0.055 | 0.165 ± 0.069 |
| UCUAAGCAAUAUUACGGUAC | -3.5 ± 0.3 | -2.78 ± 0.4 |
| ACAUAGCAAUAUUACGUGUA | -2.68 ± 0.21 | -2.11 ± 0.22 |
| CGCUAGCAAUAUUACGGCGC | -1.1 ± 0.29 |  |
| UAGCAGCAAUAUUACGUUCG | -0.326 ± 0.069 | 0.165 ± 0.091 |
| AGCGAGCAAUAUUACGAAGA |  | -2.72 ± 0.34 |
| UCGAAGCAAUAUUACGACCU | -1.51 ± 0.16 | -1.1 ± 0.18 |
| GGUAAGCAAUAUUACGAUUU | -0.236 ± 0.1 | -0.0101 ± 0.14 |
| UAGAAGCAAUAUUACGUCUC | -1.21 ± 0.11 | -0.794 ± 0.1 |
| GUUAAGCAAUAUUACGUCUU | -0.682 ± 0.09 | -0.56 ± 0.11 |
| GUAAAGCAAUAUUACGUGCU | -2.34 ± 0.11 | -0.431 ± 0.12 |
| AAGCAGCAAUAUUACGGAGG | -3.79 ± 0.19 | -2.53 ± 0.21 |
| CCGGAGCAAUAUUACGCUUG | -2.67 ± 0.24 | -2.22 ± 0.27 |
| UAGCAGCAAUAUUACGUCAU | -3.68 ± 0.17 | -1.52 ± 0.13 |
| GUGAAGCAAUAUUACGCCUU | -0.0499 ± 0.15 | -0.45 ± 0.17 |
| AGUUAGCAAUAUUACGGUAU | -2.69 ± 0.13 | -1.34 ± 0.13 |
| GGUUAGCAAUAUUACGUAAG | -0.619 ± 0.14 | -0.436 ± 0.23 |
